± gives the standard deviation of the averaged measurements.
B1: library; a variant is named by its letters at N, in order (parent)
chain: GCUGUCACCGAGAAACUGUGAAGUAUAUCUUAAACCUGGGCACUUAAAAGAUAUAUGGAGUUAGUAGUGCAACCUGCUCGGUCUGAUGAGUCCNNNNNNGGACGAAACAGC

Experiments:
cyclic di-GMP [1] = variants of: B1; assay: normalized RNA/DNA level without ligand (relative to sTRSVctl = 100) (log10 (% of sTRSVctl)); HEK293T; ligand: cyclic di-GMP (c-di-GMP-II aptamer); higher = less ribozyme self-cleavage, higher mRNA level; details: reporter: mCherry (pCS4076), ligand present: no
Summary of the method: (§1)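 Ribozyme switch library plasmids linked to reporters were introduced into HEK293T cells at 4 µg per 6-well well, with ligand, if any, added 1 h before. Total RNA was extracted with EDTA 72 h later, reverse-transcribed, amplified, barcoded and sequenced. RNA level was computed from RNA over DNA reads relative to a spiked-in non-cleaving sequence or the top sequences, then scaled and log-transformed. The top set was 25 sequences, values were ×100 and log10, and the cutoff was ≥100 DNA reads.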

cyclic di-GMP [2] = variants of: B1; assay: normalized RNA/DNA level with ligand (relative to sTRSVctl = 100) (log10 (% of sTRSVctl)); HEK293T; ligand: cyclic di-GMP (c-di-GMP-II aptamer); ligand concentration (+) RNA-Seq: 1 mM; higher = less ribozyme self-cleavage, higher mRNA level; details: reporter: mCherry (pCS4076), ligand present: yes
Summary of the method: as §1

Variant | normalized RNA/DNA level without ligand (log10) (cyclic di-GMP [1]) | normalized RNA/DNA level with ligand (log10) (cyclic di-GMP [2])
ACGCAC | 1.61 ± 0.018 | 1.79 ± 0.11
ACGCAA | 1.47 ± 0.075 | 1.64 ± 0.11
ACGCAU | 1.42 ± 0.15 | 1.68 ± 0.075
ACCGUA | 1.51 ± 0.034 | 1.68 ± 0.13
ACCGUU | 1.52 ± 0.028 | 1.72 ± 0.1
ACCGUG | 1.57 ± 0.096 | 1.77 ± 0.097
ACCGUC | 1.73 ± 0.028 | 1.83 ± 0.11
GCCACU | 1.684 ± 0.016 | 1.86 ± 0.12
ACCAUC | 1.68 ± 0.04 | 1.81 ± 0.13
ACCAUG | 1.61 ± 0.099 | 1.74 ± 0.057
ACCAUU | 1.56 ± 0.032 | 1.79 ± 0.1
CCGCAU | 1.6 ± 0.035 | 1.77 ± 0.096
CCGCAG | 1.54 ± 0.054 | 1.67 ± 0.12
CCGCAA | 1.447 ± 0.014 | 1.68 ± 0.14
ACCUAG | 1.64 ± 0.053 | 1.78 ± 0.086
ACCUAC | 1.7 ± 0.02 | 1.85 ± 0.075
UCCGUU | 1.6717 ± 0.00065 | 1.85 ± 0.12
UCCGUC | 1.75 ± 0.018 | 1.9 ± 0.14
UCCGUA | 1.51 ± 0.1 | 1.7 ± 0.084
UCCGUG | 1.73 ± 0.033 | 1.85 ± 0.11
CCCGAG | 1.56 ± 0.065 | 1.76 ± 0.11
CCCGAU | 1.64 ± 0.027 | 1.83 ± 0.12
CCCGAC | 1.7 ± 0.018 | 1.81 ± 0.14

Variant | normalized RNA/DNA level without ligand (log10) (cyclic di-GMP [1]) | normalized RNA/DNA level with ligand (log10) (cyclic di-GMP [2])
CCCUCG | 1.75 ± 0.0059 | 1.91 ± 0.097
CCCUCU | 1.62 ± 0.03 | 1.8 ± 0.12
UCCUGU | 1.72 ± 0.018 | 1.88 ± 0.059
UCCUGA | 1.69 ± 0.048 | 1.85 ± 0.1
UCCUGG | 1.82 ± 0.057 | 1.91 ± 0.14
UCCUGC | 1.79 ± 0.062 | 1.91 ± 0.053
CCCCCU | 1.704 ± 0.0062 | 1.86 ± 0.13
CCCCCC | 1.82 ± 0.043 | 1.93 ± 0.12
CCCCCG | 1.79 ± 0.027 | 1.84 ± 0.071
GCCUUA | 1.657 ± 0.0086 | 1.82 ± 0.1
GCCUUU | 1.69 ± 0.051 | 1.88 ± 0.14
GCCUUC | 1.61 ± 0.038 | 1.79 ± 0.099
GCCUUG | 1.576 ± 0.007 | 1.81 ± 0.1
GCCAGC | 1.67 ± 0.064 | 1.83 ± 0.18
GCCAGU | 1.604 ± 0.016 | 1.82 ± 0.098
GCCAGA | 1.48 ± 0.05 | 1.68 ± 0.1
UCCGCA | 1.72 ± 0.021 | 1.86 ± 0.14
UCCGCG | 1.774 ± 0.0088 | 1.89 ± 0.083
UCCGCU | 1.75 ± 0.052 | 1.88 ± 0.08
UCCGCC | 1.75 ± 0.076 | 1.89 ± 0.11
CCCUGG | 1.74 ± 0.022 | 1.85 ± 0.03
CCCUGU | 1.75 ± 0.043 | 1.87 ± 0.13
CCCUGA | 1.61 ± 0.068 | 1.82 ± 0.068

Variant | normalized RNA/DNA level without ligand (log10) (cyclic di-GMP [1]) | normalized RNA/DNA level with ligand (log10) (cyclic di-GMP [2])
UCCCCC | 1.83 ± 0.088 | 1.92 ± 0.13
UCCCCA | 1.79 ± 0.034 | 1.91 ± 0.2
UCCCCG | 1.82 ± 0.03 | 1.96 ± 0.11
UCCCCU | 1.78 ± 0.033 | 1.9 ± 0.13
UCGAGG | 1.772 ± 0.011 | 1.87 ± 0.13
UCCACU | 1.695 ± 0.011 | 1.85 ± 0.12
UCCACG | 1.77 ± 0.057 | 1.87 ± 0.11
CCCGCC | 1.8 ± 0.13 | 1.92 ± 0.16
CCCGCU | 1.74 ± 0.024 | 1.88 ± 0.11
CCCGCA | 1.66 ± 0.037 | 1.8 ± 0.08
CCCGCG | 1.79 ± 0.046 | 1.9 ± 0.044
GCCAUC | 1.564 ± 0.0079 | 1.77 ± 0.074
GCCAUG | 1.59 ± 0.051 | 1.79 ± 0.066
UCGCAG | 1.762 ± 0.0034 | 1.87 ± 0.13
UCGCAC | 1.697 ± 0.015 | 1.86 ± 0.084
UCGCAU | 1.572 ± 0.0067 | 1.76 ± 0.092
ACCAGC | 1.63 ± 0.064 | 1.77 ± 0.079
ACCAGA | 1.39 ± 0.11 | 1.6 ± 0.13
ACCAGG | 1.71 ± 0.037 | 1.77 ± 0.088
GCCGAG | 1.65 ± 0.031 | 1.72 ± 0.091
UCGAAG | 1.52 ± 0.097 | 1.74 ± 0.058
UCGAAC | 1.62 ± 0.026 | 1.76 ± 0.1
UCGAAU | 1.45 ± 0.1 | 1.69 ± 0.059

Variant | normalized RNA/DNA level without ligand (log10) (cyclic di-GMP [1]) | normalized RNA/DNA level with ligand (log10) (cyclic di-GMP [2])
CCCGGG | 1.7187 ± 0.00061 | 1.91 ± 0.14
CCCGGA | 1.48 ± 0.075 | 1.72 ± 0.13
CCCGGC | 1.75 ± 0.031 | 1.88 ± 0.07
ACCUGG | 1.68 ± 0.081 | 1.88 ± 0.049
ACCUGC | 1.71 ± 0.029 | 1.85 ± 0.076
ACCUGU | 1.72 ± 0.063 | 1.84 ± 0.13
GCGAAC | 1.28 ± 0.15 | 1.54 ± 0.052
GCGAAA | 1.34 ± 0.099 | 1.56 ± 0.096
GCGAAG | 1.45 ± 0.068 | 1.63 ± 0.087
ACGAUC | 1.56 ± 0.074 | 1.75 ± 0.085
ACGAUA | 1.45 ± 0.05 | 1.68 ± 0.12
GCGAUU | 1.47 ± 0.024 | 1.69 ± 0.19
GCGAUG | 1.59 ± 0.06 | 1.79 ± 0.096
CCGAAC | 1.56 ± 0.058 | 1.72 ± 0.12
CCGAAU | 1.48 ± 0.13 | 1.68 ± 0.11
UCCGGA | 1.606 ± 0.0039 | 1.8 ± 0.096
UCCGGG | 1.852 ± 0.016 | 1.93 ± 0.06
UCCGGU | 1.67 ± 0.024 | 1.85 ± 0.1
UCCGGC | 1.79 ± 0.062 | 1.95 ± 0.12
ACCACU | 1.61 ± 0.062 | 1.82 ± 0.087
UCGAUC | 1.62 ± 0.032 | 1.79 ± 0.16
UCGAUG | 1.54 ± 0.1 | 1.72 ± 0.14
CCCACU | 1.624 ± 0.014 | 1.83 ± 0.12

Variant | normalized RNA/DNA level without ligand (log10) (cyclic di-GMP [1]) | normalized RNA/DNA level with ligand (log10) (cyclic di-GMP [2])
UCCUUU | 1.75 ± 0.021 | 1.9 ± 0.073
UCCUUC | 1.71 ± 0.027 | 1.87 ± 0.11
UCCUUG | 1.74 ± 0.036 | 1.86 ± 0.082
UCCUUA | 1.65 ± 0.025 | 1.83 ± 0.15
GCCGUA | 1.57 ± 0.099 | 1.74 ± 0.068
GCCGUU | 1.596 ± 0.013 | 1.77 ± 0.11
GCCGUC | 1.54 ± 0.05 | 1.72 ± 0.12
GCCGGC | 1.56 ± 0.035 | 1.74 ± 0.2
GCCGGA | 1.55 ± 0.041 | 1.7 ± 0.11
GCCGGG | 1.86 ± 0.089 | 1.93 ± 0.13
GCCCAA | 1.616 ± 0.011 | 1.77 ± 0.17
GCCCAU | 1.67 ± 0.036 | 1.85 ± 0.15
GCCCAC | 1.656 ± 0.0072 | 1.82 ± 0.14
GCCCAG | 1.9 ± 0.036 | 1.97 ± 0.095
UCGACA | 1.619 ± 0.0042 | 1.77 ± 0.12
UCGACG | 1.73 ± 0.0042 | 1.87 ± 0.099
UCGACU | 1.6114 ± 7.1e-07 | 1.82 ± 0.12
ACCGCU | 1.7 ± 0.028 | 1.86 ± 0.12
ACCGCA | 1.667 ± 0.015 | 1.8 ± 0.11
ACCGCG | 1.72 ± 0.075 | 1.87 ± 0.099
ACCGCC | 1.74 ± 0.057 | 1.89 ± 0.095
CCCCAG | 1.679 ± 0.008 | 1.82 ± 0.11
CCCCAA | 1.59 ± 0.018 | 1.76 ± 0.14
